Results published in paper PMC4646087 (Journal of molecular biology, 2015).
Where two headings read alike, the source gives them in different places.

Key:
[1] = molecular target: T1, SR-TOG3 construct of human CLASP2 (human); assay: ITC
T1 sequence (O75122 whole entry, looked up): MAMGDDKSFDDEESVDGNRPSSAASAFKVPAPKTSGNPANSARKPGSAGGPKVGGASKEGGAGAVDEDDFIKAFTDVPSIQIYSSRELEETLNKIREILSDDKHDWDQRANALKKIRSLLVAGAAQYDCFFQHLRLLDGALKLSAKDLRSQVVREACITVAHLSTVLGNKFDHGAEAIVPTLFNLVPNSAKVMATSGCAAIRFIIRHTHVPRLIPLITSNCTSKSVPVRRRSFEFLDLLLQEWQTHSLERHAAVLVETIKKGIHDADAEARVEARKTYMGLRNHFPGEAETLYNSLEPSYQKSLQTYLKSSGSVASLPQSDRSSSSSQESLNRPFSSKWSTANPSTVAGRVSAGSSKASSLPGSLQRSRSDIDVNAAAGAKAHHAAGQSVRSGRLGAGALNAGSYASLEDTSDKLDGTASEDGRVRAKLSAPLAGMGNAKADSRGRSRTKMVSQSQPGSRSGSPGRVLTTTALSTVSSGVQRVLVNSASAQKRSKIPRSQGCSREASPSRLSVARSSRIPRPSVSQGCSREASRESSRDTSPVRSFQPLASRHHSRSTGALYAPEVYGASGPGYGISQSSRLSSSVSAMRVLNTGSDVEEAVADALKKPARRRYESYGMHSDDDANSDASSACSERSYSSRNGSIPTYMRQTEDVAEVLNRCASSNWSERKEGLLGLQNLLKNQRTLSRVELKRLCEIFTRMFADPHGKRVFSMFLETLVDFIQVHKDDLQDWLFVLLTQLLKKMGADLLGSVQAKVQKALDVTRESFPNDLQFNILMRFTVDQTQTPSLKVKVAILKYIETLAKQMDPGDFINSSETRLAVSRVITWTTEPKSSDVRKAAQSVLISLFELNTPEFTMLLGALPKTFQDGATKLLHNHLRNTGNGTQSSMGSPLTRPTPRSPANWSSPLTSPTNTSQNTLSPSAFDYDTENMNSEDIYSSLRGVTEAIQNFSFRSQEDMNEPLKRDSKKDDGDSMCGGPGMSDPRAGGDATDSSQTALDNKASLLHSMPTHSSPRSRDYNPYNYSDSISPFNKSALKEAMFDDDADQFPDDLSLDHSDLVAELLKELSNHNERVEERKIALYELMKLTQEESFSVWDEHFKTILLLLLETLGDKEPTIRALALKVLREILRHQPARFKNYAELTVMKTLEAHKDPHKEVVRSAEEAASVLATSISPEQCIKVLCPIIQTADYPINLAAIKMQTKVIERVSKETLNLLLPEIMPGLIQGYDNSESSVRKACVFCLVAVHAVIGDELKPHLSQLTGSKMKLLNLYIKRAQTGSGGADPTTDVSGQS

[2] = molecular target: T2, TOG2-SR construct of human CLASP2 (human); assay: ITC
T2 sequence (O75122 whole entry, looked up): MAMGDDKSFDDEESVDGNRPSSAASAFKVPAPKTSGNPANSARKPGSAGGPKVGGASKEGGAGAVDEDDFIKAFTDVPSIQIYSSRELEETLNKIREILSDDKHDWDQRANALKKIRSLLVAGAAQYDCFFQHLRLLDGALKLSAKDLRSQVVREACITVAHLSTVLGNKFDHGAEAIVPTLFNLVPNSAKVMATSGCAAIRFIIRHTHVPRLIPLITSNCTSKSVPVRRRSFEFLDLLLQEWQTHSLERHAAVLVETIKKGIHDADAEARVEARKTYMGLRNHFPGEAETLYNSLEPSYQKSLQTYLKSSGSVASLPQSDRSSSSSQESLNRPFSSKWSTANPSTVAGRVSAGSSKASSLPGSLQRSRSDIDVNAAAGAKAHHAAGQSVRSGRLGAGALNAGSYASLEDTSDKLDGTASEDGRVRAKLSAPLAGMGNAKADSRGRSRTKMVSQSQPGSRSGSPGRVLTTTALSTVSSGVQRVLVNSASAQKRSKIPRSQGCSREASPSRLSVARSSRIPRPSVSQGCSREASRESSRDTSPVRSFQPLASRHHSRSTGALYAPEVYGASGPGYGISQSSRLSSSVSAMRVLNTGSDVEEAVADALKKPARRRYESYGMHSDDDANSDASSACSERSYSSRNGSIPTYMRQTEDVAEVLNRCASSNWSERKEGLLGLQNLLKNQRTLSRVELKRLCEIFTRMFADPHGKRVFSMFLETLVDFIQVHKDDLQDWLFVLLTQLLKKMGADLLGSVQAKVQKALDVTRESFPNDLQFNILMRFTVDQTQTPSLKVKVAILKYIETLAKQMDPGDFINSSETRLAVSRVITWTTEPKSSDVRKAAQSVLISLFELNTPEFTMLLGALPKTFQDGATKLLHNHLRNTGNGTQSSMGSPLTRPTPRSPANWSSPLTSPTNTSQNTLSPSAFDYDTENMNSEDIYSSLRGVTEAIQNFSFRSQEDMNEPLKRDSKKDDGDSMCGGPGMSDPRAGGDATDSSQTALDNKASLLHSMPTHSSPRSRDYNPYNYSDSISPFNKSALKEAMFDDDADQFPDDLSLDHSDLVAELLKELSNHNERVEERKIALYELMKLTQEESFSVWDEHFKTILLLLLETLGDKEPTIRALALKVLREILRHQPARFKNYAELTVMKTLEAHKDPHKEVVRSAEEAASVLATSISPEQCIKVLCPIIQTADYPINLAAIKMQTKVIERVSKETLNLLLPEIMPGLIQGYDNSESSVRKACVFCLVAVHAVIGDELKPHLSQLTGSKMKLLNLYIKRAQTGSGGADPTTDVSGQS

[3] = molecular target: αβ-tubulin heterodimer isolated from porcine brain (porcine) (UniProt P02550); assay: co-sedimentation
[4] = molecular target: T3, SR region of human CLASP2 (residues 311-648) (human, UniProt O75122 311-648); assay: ITC
T3 sequence (looked up): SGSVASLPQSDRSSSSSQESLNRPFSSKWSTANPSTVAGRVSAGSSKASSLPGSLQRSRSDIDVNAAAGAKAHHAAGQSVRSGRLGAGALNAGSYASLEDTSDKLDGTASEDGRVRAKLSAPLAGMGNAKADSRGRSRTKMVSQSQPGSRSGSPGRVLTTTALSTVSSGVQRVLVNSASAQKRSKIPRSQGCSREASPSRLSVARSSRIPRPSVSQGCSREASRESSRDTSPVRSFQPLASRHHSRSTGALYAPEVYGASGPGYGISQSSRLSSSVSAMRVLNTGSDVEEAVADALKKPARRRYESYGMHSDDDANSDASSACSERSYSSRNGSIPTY

[5] = molecular target: T3, SR region of human CLASP2 (residues …); assay: ITC; remark: listed apart in the source

EB1 (dimeric) (from UniProt Q15691 1-268) (natural protein)
Kd [1]: 1200 nM
stoichiometry N (CLASP2 versus EB1 dimer) [1]: 2
Kd [2]: 2000 nM
stoichiometry N (CLASP2 versus EB1 dimer) [2]: 2.2

B1: human CLASP2 TOG3 domain (hC2-TOG3; residues 649-881) (domain or fragment)
chain: MRQTEDVAEVLNRCASSNWSERKEGLLGLQNLLKNQRTLSRVELKRLCEIFTRMFADPHGKRVFSMFLETLVDFIQVHKDDLQDWLFVLLTQLLKKMGADLLGSVQAKVQKALDVTRESFPNDLQFNILMRFTVDQTQTPSLKVKVAILKYIETLAKQMDPGDFINSSETRLAVSRVITWTTEPKSSDVRKAAQSVLISLFELNTPEFTMLLGALPKTFQDGATKLLHNHLRN
fold affinity relative to hC2-TOG2 [3]: 3 fold

B2: EB1 (dimeric) (natural protein, UniProt Q15691 1-268, looked up)
chain: MAVNVYSTSVTSDNLSRHDMLAWINESLQLNLTKIEQLCSGAAYCQFMDMLFPGSIALKKVKFQAKLEHEYIQNFKILQAGFKRMGVDKIIPVDKLVKGKFQDNFEFVQWFKKFFDANYDGKDYDPVAARQGQETAVAPSLVAPALNKPKKPLTSSSAAPQRPISTQRTAAAPKAGPGVVRKNPGVGNGDDEAAELMQQVNVLKLTVEDLEKERDFYFGKLRNIELICQENEGENDPVLQRIVDILYATDEGFVIPDEGGPQEEQEEY
Kd [4]: 3000 ± 400 nM
stoichiometry N [4]: 2 CLASP2 versus EB1 dimer
Kd [5]: 2000 ± 400 nM
stoichiometry N [5]: 2 CLASP2 versus EB1 dimer
